Experimental data: PMC2849977 (Nature structural & molecular biology, 2009)

Molecular target: PHF8 (Homo sapiens, UniProt Q9UPP1)
Assay: PHF8 demethylation time course
Type: biochemical
Conditions: equimolar ratio added

PHF8, sequence (Q9UPP1 37-483): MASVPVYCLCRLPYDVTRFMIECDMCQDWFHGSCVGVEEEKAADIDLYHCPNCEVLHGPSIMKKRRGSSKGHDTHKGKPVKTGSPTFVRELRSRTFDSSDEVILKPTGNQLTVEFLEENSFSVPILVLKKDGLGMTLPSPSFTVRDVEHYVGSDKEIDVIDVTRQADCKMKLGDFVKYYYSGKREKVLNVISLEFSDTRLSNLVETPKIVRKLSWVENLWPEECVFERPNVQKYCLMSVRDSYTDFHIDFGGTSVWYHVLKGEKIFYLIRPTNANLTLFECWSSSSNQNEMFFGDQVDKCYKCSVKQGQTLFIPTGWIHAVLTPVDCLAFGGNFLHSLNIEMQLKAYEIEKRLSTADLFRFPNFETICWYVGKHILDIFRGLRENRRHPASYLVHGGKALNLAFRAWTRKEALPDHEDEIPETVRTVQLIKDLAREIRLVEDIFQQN

effect of added peptide in trans on demethylation of H3_1–24K9me2 by PHF8	Substance
inhibitory effect	H3_1–12K4me3: H3K4me3 modification in a short H3_1–12 peptide
inhibitory effect	H3_1–21K4me3: H3K4me3 modification in a long H3_1–21 peptide
